Laboratory results taken from patent publication US20260070976A1 (Alector, published 2026).

Tests used:
[1] = molecular target: cynomolgus PILRA on HEK293F cells (cynomolgus monkey, UniProt A0A7N9CRU1 20-292); test: cA Kd of Table 9; method not stated (Example 8: HEK293F overexpressing cells, FACS)
[2] = molecular target: T1, human PILRA G78 on HEK293F cells (human, UniProt Q9UKJ1 20-303); test: hA Kd of Table 9; method not stated (Example 8: HEK293F overexpressing cells, FACS)
T1 construct: also called hA; G78 OE
T1 sequence (Q9UKJ1 20-303 R78G): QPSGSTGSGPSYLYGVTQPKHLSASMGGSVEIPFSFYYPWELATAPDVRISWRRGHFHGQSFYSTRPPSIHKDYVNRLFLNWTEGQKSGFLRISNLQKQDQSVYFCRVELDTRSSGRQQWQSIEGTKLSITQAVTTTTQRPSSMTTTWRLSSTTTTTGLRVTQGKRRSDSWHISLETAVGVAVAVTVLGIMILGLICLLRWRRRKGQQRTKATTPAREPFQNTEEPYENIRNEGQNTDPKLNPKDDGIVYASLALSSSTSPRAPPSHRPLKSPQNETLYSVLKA

[3] = molecular target: T2, cell surface PILRA on human monocytes (human, UniProt Q9UKJ1 20-303); test: flow cytometry; Alexa Fluor 647-conjugated antibody on human CD14+ monocytes, Fc receptors blocked, 30 min on ice
T2 construct: Native PILRA on CD14+ monocytes of healthy donors; also called human PILRA; hu mono
T2 sequence (Q9UKJ1 20-303): as the sequence (Q9UKJ1 20-303 R78G) above, with G59R counted along it
Protocol: (§1) Anti-human PILRA antibodies X0 (PA-29) and its affinity matured variants were tested for their abilities to bind cell surface PILRA on human and cynomolgus monocytes. CD14+ monocytes were isolated from healthy human donors using a RosetteSep Human Monocyte Enrichment Cocktail kit (StemCell). Cynomolgus white blood cells were collected from cynomolgus whole blood. In both human and cynomolgus samples, the Fc receptor on the tested monocytes was blocked and the monocytes were treated with Alexa Fluor 647-conjugated PILRA antibodies for 30 minutes on ice. A dose response curve of antibodies X0 (PA-29), X1, X2, X7, X11, X12, X13, X14, X16, X18, and X20 was tested for binding to cell surface PILRA in human and cynomolgus monocytes, and antibodies bound to PILRA in a dose response manner. In another sample of human donor monocytes, a dose response curve of antibodies X0 (PA-29), X1, X2, X11, X13, X18, X29 (PA-43), and X34 (A6) was tested for binding to cell surface PILRA in human and cynomolgus monocytes, and antibodies bound to PILRA in a dose response manner.

[4] = molecular target: T2, cell surface PILRA on human monocytes; test: flow cytometry; Alexa Fluor 647-conjugated antibody on human CD14+ monocytes (second donor sample), Fc receptors blocked, 30 min on ice
Protocol: as §1

recombinant human PILRB [5] = molecular target: T3, recombinant human PILRB (human, UniProt Q9UKJ0 20-191); test: SPR, Carterra LSA, steady-state fit
T3 sequence (Q9UKJ0 20-191 limits assumed): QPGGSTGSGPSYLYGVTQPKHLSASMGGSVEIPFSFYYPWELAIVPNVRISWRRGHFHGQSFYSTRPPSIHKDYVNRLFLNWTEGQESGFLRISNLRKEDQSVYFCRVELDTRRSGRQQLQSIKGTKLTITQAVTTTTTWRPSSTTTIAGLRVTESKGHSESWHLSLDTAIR

[6] = molecular target: T4, recombinant cynomolgus PILRA (SEQ ID NO:120) (cynomolgus monkey); test: SPR, Carterra LSA, antibody amine-coupled, kinetic fit
T4 construct: also called cyno PILRA
T4 sequence (chain, as listed by the source limits assumed): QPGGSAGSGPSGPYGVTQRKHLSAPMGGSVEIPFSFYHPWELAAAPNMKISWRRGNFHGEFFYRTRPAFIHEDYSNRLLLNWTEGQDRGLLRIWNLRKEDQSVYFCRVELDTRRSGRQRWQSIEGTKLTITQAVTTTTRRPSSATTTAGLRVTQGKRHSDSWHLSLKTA

recombinant human PILRA [7] = molecular target: T5, recombinant human PILRA (human, UniProt Q9UKJ1 20-197); test: as above
T5 sequence (Q9UKJ1 20-197 limits assumed): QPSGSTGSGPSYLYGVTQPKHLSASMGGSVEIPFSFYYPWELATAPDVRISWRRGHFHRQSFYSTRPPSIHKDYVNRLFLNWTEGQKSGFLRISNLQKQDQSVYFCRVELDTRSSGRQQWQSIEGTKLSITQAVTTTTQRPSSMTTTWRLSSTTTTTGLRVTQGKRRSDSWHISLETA

recombinant human PILRB [8] = molecular target: T3, recombinant human PILRB; test: SPR, Biacore T200, antibody captured by anti-Fab
Protocol: (§2) A subset of these antibodies was further evaluated using the Biacore T200 (Cytiva). Anti-PILRA antibodies were diluted to 10 μg/mL and captured using an anti-Fab (Cytiva, #28958325) surface on a CM4 chip, that was prepared by amine coupling according to the manufacturer's protocol. Human PILRA and cynomolgus PILRB were diluted in running buffer to 130 nM, and diluted 4-fold serially, twice, to 8 nM. Human PILRB was similarly diluted from 260 nM to 16 nM. These analytes were injected and allowed 2 minutes of association, followed by dissociation for 5 minutes.
(§3) Data were analyzed using Biacore evaluation software to generate kinetic constants. The equilibrium dissociation constants (KD) were calculated from the fitted association and dissociation rate constants (k-on and k-off) for each of the anti-PILRA antibodies. These Kn values are indicated with asterisks in Table 8 below.

recombinant human PILRA [9] = molecular target: T5, recombinant human PILRA; test: SPR, Biacore T200, antibody captured by anti-Fab
Protocol: as §2, §3

[10] = molecular target: T1, human PILRA G78 on HEK293F cells; test: FACS on HEK293F cells, binding on human PILRA (hA) over human PILRB (hB)
Protocol: Conditioned media samples containing the tested anti-PILRA antibodies were assessed for binding to HEK293F cells overexpressing human PILRA (hA), human PILRB (hB), and cynomolgus PILRA (cA) by FACS. The conditioned media containing the tested antibodies were incubated with the cells for 30 min at 4° C., washed twice, and then detected with goat anti-human IgG secondary antibody (Alexa Fluor 647) at 1:1000 dilution. The cells were analyzed by flow cytometry on FACS Canto II, and for all cell lines, the reported MFI values were calculated for each conditioned media. These antibodies were evaluated for nonspecific binding using a baculovirus particle (BVP) assay (Jain T., Sun T., Durand S., Hall A., Houston N. R., Nett J. H., Sharkey B., Bobrowicz B., Caffry L, Yu Y., et al. Biophysical properties of the clinical-stage antibody landscape. Proc. Natl. Acad. Sci. USA. 2017; 114:944-949. Doi: 10.1073/pnas.1616408114.). The BVP scores are listed in Table 9, and the higher the score the more nonspecific binding that occurred.

Chain of cynomolgus PILRA on HEK293F cells (A0A7N9CRU1 entry or part of it): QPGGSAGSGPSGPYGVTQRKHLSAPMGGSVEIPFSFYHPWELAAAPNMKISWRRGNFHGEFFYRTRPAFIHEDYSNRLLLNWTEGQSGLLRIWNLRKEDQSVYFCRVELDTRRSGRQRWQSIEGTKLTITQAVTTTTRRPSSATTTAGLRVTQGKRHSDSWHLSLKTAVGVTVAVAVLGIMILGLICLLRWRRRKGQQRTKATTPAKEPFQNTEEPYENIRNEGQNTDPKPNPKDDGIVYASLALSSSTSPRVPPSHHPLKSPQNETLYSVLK

B1: X13 (antibody, human IgG4, V domains shown)
VH: QVQLVQSGAEVKKPGSSVKVSCKASGYNFLHYDVNWVRQAPGQGLEWMGGIIPIFGTANYAQKFQGRVTITADESTSTAYMELSSLRSEDTAVYYCATAVGAGWFDPWGQGTLVTVSS
VL: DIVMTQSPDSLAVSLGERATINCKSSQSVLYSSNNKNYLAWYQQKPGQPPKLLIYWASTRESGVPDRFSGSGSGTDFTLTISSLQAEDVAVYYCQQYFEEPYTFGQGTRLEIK
notes: conditioned media in the HEK293F assays
[1]
  Kd: 0.4 nM
[2]
  Kd: 0.2 nM
[3]
  EC50 (read off the curve): ~0.2 µg/mL
[4]
  EC50 (read off the curve): ~0.1 µg/mL
Recombinant human PILRB [5]
  Kd: 18 nM
[6]
  Kd: 0.3 nM
Recombinant human PILRA [7]
  Kd: 1.1 nM
Recombinant human PILRB [8]
  Kd: 9.1 nM
Recombinant human PILRA [9]
  Kd: 0.2 nM
[10]
  hA/hB binding ratio on HEK293F: 20.3
